# Bridge positions count the residues as written; N and C are the ends. Peptide text beside a SMILES is read from it.
# B1: Peptide F: constrained 16-mer with a -NHCH2C(═O)(CH2)2NH2- linker tethering the two glutamic acid residues (peptide)
# peptide: Ac-IWIAQELRRIGDEFNA-NH2
# modifications: linker 6-13 via ‑NHCH2C(═O)(CH2)2NH2‑
# B2: linear 16-mer Ac-…-NH2 (peptide)
# peptide: Ac-IWIAQELRRIGDEFNA-NH2
# B3: Peptide E: constrained 16-mer with a pentane linker tethering the two glutamate residues (peptide)
# peptide: Ac-IWIAQELRRIGDEFNA-NH2
# modifications: linker 6-13 via 1,5‑diaminopentane
# B4: L2 Ac-…-NH2 (peptide)
# peptide: Ac-IAQQLRRIGDQF-NH2
# B5: Linear 12mer Ac-…-NH2 (peptide)
# peptide: Ac-IAQELRRIGDEF-NH2
# B6: Peptide C: Ac-IAQ-E-LRRIGD-E-F-NH2 with a 1,6-diaminohexane linker (peptide)
# peptide: Ac-IAQELRRIGDEF-NH2
# modifications: linker 4-11 via 1,6‑diaminohexane
# B7: Peptide A of Example 7: Ac-E-IAQELR-E-IGDEF-NH2 with a 1,5-diaminopentane linker (first position) (peptide)
# peptide: Ac-EIAQELREIGDEF-NH2
# modifications: linker 1-8 via 1,5‑diaminopentane
# B8: Acetyl-IAQ(E1)LRRIGD(E2)F-amide with a 1,5-diaminopentane linker (second position) (peptide)
# peptide: Ac-IAQELRRIGDEF-NH2
# modifications: linker 4-11 via 1,5‑diaminopentane
# B9: Peptide D: Ac-IAQ-E-LRRIGD-E-F-NH2 with a -NHCH2C(═O)NHCH2CH2NH- linker (peptide)
# peptide: IAQELRRIGDEF
# HELM: PEPTIDE1{[ac].I.A.Q.E.L.R.R.I.G.D.E.F.[am]}|CHEM1{[O=C(CN[*:1])NCCN[*:2]]}$PEPTIDE1,CHEM1,5:R3-1:R1|PEPTIDE1,CHEM1,12:R3-1:R2$$$V2.0
# SMILES: CC[C@H](C)[C@H](NC(C)=O)C(=O)N[C@@H](C)C(=O)N[C@@H](CCC(N)=O)C(=O)N[C@H]1CCC(=O)NCC(=O)NCCNC(=O)CC[C@@H](C(=O)N[C@@H](Cc2ccccc2)C(N)=O)NC(=O)[C@H](CC(=O)O)NC(=O)CNC(=O)[C@H]([C@@H](C)CC)NC(=O)[C@H](CCCNC(=N)N)NC(=O)[C@H](CCCNC(=N)N)NC(=O)[C@H](CC(C)C)NC1=O
# Tests used:
# [1] = Circular dichroism, alpha-helical content of peptides; format: physicochemical; settings: 30% aqueous trifluoroethanol
# Procedure: Circular dichroism spectra were obtained using a Jasco Model J-710 spetropolarimeter at 20° C. using the following parameters: path length, 2 mm; step resolution, 0.1 nm; speed, 20 nm/min, accumulation, 4; response, 1 second; bandwidth, 1.0 nm. The peptides were analysed at a concentration of 0.5 mg/mL in 30% aqueous TFE. The alpha-helical content of the peptides were determined by methods described in Yang et al (1986), involving comparisons of spectra with model helical peptides.
# [2] = biological target: GST tagged Bcl w delta C29 protein (UniProt Q92843); experiment: competition assay; competitor: biotinylated BIM-BH3 peptide
# [3] = biological target: GST tagged Bcl w delta C29 protein (UniProt Q92843); experiment: competition assay; competitor: biotinylated Bim BH3 peptide
# [4] = biological target: Mcl-1 ΔC23 (UniProt Q07820); experiment: AlphaScreen GST detection; competitor: biotinylated BakBH3 peptide
# [5] = biological target: T1, Bcl-xL ΔC25 (Homo sapiens, UniProt Q07817); experiment: AlphaScreen GST detection; competitor: biotinylated BimBH3 peptide
# [6] = biological target: Mcl-1 ΔC23 (UniProt Q07820); experiment: AlphaScreen GST detection; competitor: biotinylated BakBH3 peptide; second of two values
# [7] = biological target: T1, Bcl-xL ΔC25; experiment: AlphaScreen GST detection; competitor: biotinylated BimBH3 peptide; second of two values
# [8] = biological target: Mcl-1 ΔC23 (UniProt Q07820); experiment: SPR, Biacore S51, direct binding
# [9] = biological target: GST tagged Bcl w delta C29 protein (UniProt Q92843); experiment: AlphaScreen GST detection; competitor: biotinylated BimBH3 peptide
# [10] = biological target: GST tagged Bcl w delta C29 protein (UniProt Q92843); experiment: competition assay; competitor: biotinylated Bim-BH3 peptide
# [11] = biological target: 6-His tagged Bcl w delta C10 protein (UniProt Q92843); experiment: as above
# [12] = biological target: Bcl-2 ΔC22 (Homo sapiens, UniProt P10415); experiment: as above
# [13] = biological target: GST tagged Bcl w delta C29 protein (UniProt Q92843); experiment: AlphaScreen GST detection; competitor: biotinylated BimBH3 peptide; second of two values
# [14] = biological target: T1, Bcl-xL ΔC25; experiment: SPR, Biacore S51, direct binding
Molecule,IC50 [2] [nM],IC50 [4] [nM],IC50 [5] [nM],IC50 [6] [nM],IC50 [7] [nM],Kd [8] [nM],IC50 [10] [nM],IC50 [11] [nM],IC50 [12] [nM],other results
"CC[C@H](C)[C@H](NC(C)=O)C(=O)N[C@@H](C)C(=O)N[C@@H](CCC(N)=O)C(=O)N[C@H]1CCC(=O)NCC(=O)NCCNC(=O)CC[C@@H](C(=O)N[C@@H](Cc2ccccc2)C(N)=O)NC(=O)[C@H](CC(=O)O)NC(=O)CNC(=O)[C@H]([C@@H](C)CC)NC(=O)[C@H](CCCNC(=N)N)NC(=O)[C@H](CCCNC(=N)N)NC(=O)[C@H](CC(C)C)NC1=O [D, Ac-IAQ-E-LRRIGD-E-F-NH2] (HELM PEPTIDE1{[ac].I.A.Q.E.L.R.R.I.G.D.E.F.[am]}|CHEM1{[O=C(CN[*:1])NCCN[*:2]]}$PEPTIDE1,CHEM1,5:R3-1:R1|PEPTIDE1,CHEM1,12:R3-1:R2$$$V2.0)",–,–,–,–,–,–,–,–,–,% Helicity [1]: 16%
B1,0.3,–,–,–,–,–,–,–,–,–
B2,2.5,–,–,–,–,–,–,–,–,IC50 [3]: 2.5 nM
B3,0.5,–,–,–,–,–,–,–,–,–
B4,–,650,960,660,890,920,–,–,–,–
B5,–,400,7000,360,6300,1200,4700,870,240000,IC50 [9]: 820 nM; IC50 [13]: 800 nM; Kd [14]: 5200 nM
B6,–,–,–,–,–,–,120,230,2600,–
B7,–,–,–,–,–,–,1800,2600,26000,–
B8,–,3,57,3,54,10,150,65,290,IC50 [9]: 40 nM; IC50 [13]: 34 nM; Kd [14]: 10 nM
B9,–,–,–,–,–,–,160,40,6900,–

# — patent US20070197430A1, “Conjugates And Therapeutic Uses Thereof” (priority 2004, published 2007)
